This is an account of results in paper PMC9722645 (Structure (London, England : 1993), 2022).

The target in series [1] is p190RhoGAP pY1087 peptide (Homo sapiens) (UniProt Q9NRY4). Put plainly: ITC. The conditions noted are these: cited from earlier work.
Series [2] deals with p190RhoGAP pY1105 peptide (Homo sapiens) (UniProt Q9NRY4). As to the kind of experiment: ITC. The note with it: cited from earlier work.
The target in series [3] is T1, p120RasGAP SH2-SH3-SH2 region (residues 174–444) (human, UniProt P20936 174-444, C236S | C261S | C372S | C402S).
T1 sequence (looked up): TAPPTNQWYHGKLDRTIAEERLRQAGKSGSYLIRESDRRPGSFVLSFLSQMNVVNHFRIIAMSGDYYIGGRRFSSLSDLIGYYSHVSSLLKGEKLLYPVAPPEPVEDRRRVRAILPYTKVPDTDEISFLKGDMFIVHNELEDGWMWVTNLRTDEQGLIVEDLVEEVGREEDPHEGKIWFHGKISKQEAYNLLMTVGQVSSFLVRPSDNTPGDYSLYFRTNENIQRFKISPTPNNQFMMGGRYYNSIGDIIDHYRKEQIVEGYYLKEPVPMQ
Put plainly: ITC. On the technique in general: Isothermal titration calorimetry measures the heat released or taken up as one component is titrated into another.

Series [4] concerns Ras. The conditions noted are these: ref [3],[4]; cited from earlier work.

Non-standard residues stand in square brackets, D forms with d. pY = N[C@@H](Cc1ccc(OP(=O)(O)O)cc1)C(=O)O

Chain of p190RhoGAP pY1087 peptide (Homo sapiens) (Q9NRY4 whole entry): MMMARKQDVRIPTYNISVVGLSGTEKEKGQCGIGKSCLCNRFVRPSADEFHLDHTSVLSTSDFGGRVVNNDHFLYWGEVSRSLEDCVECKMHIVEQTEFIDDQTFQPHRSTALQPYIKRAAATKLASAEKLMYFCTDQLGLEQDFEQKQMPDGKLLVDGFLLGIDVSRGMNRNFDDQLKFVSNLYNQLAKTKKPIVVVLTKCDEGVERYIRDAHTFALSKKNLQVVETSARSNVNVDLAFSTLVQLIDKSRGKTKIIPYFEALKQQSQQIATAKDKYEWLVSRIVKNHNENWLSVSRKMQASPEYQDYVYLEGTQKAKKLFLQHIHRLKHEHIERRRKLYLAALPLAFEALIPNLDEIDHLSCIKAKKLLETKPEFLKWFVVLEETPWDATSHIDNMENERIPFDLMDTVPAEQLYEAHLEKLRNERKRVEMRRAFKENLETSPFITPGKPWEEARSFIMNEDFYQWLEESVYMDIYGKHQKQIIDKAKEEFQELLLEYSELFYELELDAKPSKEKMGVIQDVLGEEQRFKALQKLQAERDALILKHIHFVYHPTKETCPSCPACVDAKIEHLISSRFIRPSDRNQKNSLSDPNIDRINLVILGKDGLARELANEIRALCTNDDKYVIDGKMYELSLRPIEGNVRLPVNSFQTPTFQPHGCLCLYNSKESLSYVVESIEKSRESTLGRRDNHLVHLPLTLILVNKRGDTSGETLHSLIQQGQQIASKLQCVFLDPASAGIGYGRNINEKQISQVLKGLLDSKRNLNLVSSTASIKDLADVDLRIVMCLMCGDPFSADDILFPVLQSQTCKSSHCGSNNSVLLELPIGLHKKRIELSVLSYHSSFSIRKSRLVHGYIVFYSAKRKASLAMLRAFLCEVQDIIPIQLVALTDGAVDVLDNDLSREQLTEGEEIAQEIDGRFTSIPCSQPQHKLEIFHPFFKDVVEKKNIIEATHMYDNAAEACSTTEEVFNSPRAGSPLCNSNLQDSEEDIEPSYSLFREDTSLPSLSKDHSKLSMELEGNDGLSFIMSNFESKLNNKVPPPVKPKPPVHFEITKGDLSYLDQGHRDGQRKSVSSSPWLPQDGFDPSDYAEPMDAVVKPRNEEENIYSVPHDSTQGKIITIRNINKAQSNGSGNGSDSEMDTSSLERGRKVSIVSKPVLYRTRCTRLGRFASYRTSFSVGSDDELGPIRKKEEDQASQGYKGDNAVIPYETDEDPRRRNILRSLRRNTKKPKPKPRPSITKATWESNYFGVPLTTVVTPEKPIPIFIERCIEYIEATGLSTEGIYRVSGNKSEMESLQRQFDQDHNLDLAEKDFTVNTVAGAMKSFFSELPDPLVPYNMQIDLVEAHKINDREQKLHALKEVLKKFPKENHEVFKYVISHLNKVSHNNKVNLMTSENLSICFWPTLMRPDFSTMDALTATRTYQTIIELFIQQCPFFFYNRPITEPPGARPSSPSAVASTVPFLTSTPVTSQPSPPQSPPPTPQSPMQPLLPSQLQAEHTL
Chain of p190RhoGAP pY1105 peptide (Homo sapiens) (Q9NRY4 whole entry, the tested form may be a part): as the sequence (Q9NRY4 whole entry) above

For the molecule p120RasGAP C-SH2 (from UniProt P20936), the dissociation constant (Kd) (as a rule, the free concentration of one partner at which half of the binding sites on the other are occupied at equilibrium, for simple one-to-one binding) in series [1] was 150 nM.
For p120RasGAP N-SH2 (from UniProt P20936), in series [2], the dissociation constant Kd was 300 nM.
The molecule Ac-DPSD[pY]AEPMDAVVKPRNEEENI[pY]SVPHDS-NH2 [doubly-phosphorylated p190RhoGAP-A peptide (residues 1083–1111, pY1087 and pY1105)] yielded a dH in series [3] of -31.1 kcal/mol.

B1: p120RasGAP: key regulatory protein of the Ras subfamily of small guanine-nucleotide binding GTPases (protein)
chain: T1 sequence (looked up)
modifications: left off: His6, N-terminal, cleaved
With B1, the “enhancement of GTPase activity of Ras” value in series [4] is reported as “two to five orders of magnitude”.
